Assay [1] concerns the target C. elegans caspase CED-3 (C. elegans) (UniProt P42573). The assay is described as follows: cell-based or functional assay.
Assay [2] addresses caspase 7 lacking the N-terminal 53 amino acid prodomain (caspase 7^53) (human) (UniProt P55210). Put plainly: cell-based or functional assay.
Sequence of UniProt P55210 (P55210 54-303 limits assumed): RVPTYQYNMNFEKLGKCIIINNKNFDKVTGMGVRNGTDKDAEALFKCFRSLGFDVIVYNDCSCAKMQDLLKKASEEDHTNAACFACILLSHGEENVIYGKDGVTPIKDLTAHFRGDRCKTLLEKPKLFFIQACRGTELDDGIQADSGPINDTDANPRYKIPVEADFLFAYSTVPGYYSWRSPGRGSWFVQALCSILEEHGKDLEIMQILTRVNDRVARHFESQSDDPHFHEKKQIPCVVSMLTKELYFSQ

Sequence of UniProt P42573 (P42573 whole entry): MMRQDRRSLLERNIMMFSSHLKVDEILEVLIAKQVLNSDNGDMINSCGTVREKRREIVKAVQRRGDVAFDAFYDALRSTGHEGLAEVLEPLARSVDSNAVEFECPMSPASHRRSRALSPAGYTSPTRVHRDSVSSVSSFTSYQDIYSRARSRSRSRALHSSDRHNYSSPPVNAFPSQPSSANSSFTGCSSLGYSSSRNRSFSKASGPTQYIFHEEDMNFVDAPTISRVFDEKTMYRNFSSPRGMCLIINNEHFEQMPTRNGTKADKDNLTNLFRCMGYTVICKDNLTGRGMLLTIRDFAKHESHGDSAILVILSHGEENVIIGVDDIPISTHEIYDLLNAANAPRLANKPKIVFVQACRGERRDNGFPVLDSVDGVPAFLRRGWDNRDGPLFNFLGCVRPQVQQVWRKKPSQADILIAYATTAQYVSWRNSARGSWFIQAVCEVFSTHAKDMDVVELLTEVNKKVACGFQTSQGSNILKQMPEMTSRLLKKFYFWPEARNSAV

As to “baculovirus p35 (from UniProt P08160 1-299)”, the beta-gal activity (ONPG assay) of the caspase-dependent CLBDG6 LexA/lacZ reporter in yeast (fold inhibition) in assay [1] and in assay [2] was 5 throughout.
The substance “mouse IAP MIHA (from UniProt Q60989 1-496)” returned a beta-gal activity (ONPG assay) of the caspase-dependent CLBDG6 LexA/lacZ reporter in yeast (fold inhibition) in assay [2] of 2.
